The results in this text go back to PMC8301065.

In test [1] the target is human cardiac muscle wild-type α-actin (recombinant) (human) (UniProt P68032).
Test [2] deals with human cardiac α-actin mutant p.A295S (human).
Test [3] has as its target human cardiac α-actin mutant p.E361G (human).
The target in test [4] is human cardiac α-actin mutant p.R312H (human).
Test [5] deals with human cardiac muscle wild-type α-actin (recombinant) (human) (UniProt P68032). Briefly: pyrene-actin polymerization assay; 5 µM c-actin with pyrene-labeled skeletal muscle actin added at 20:1, G-buffer; polymerization induced by 2 mM MgCl2 and 0.1 M KCl; rise of pyrene fluorescence; control without nucleator.

Sequence of FH2-domain of the formin mDia3 (O70566 625-1025): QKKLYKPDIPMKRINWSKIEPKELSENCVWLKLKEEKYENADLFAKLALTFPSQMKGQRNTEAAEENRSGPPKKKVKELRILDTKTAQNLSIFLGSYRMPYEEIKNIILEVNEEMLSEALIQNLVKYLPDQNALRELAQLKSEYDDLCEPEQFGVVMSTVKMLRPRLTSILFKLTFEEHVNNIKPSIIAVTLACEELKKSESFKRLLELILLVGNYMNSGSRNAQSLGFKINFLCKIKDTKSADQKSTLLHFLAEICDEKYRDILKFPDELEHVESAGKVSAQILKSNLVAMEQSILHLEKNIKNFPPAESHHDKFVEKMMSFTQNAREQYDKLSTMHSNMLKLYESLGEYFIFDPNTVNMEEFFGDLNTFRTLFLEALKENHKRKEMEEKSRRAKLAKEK

As for “Arp2/3 complex isolated from Acanthameba castellani”, in test [1], the half time of polymerization (t1/2) of 5 µM c-actin with 50 nM Arp2/3 complex, pyrene-actin assay (control without nucleator 8.6 min) turned out to be 2.1 min. In test [2], the half time of polymerization (t1/2) of 5 µM c-actin with 50 nM Arp2/3 complex, pyrene-actin assay (control without nucleator 12.2 min) was determined as 1.2 min. Besides, in test [3], the half time of polymerization (t1/2) of 5 µM c-actin with 50 nM Arp2/3 complex, pyrene-actin assay (control without nucleator 4.0 min) worked out at 1.8 min. In addition, the half time of polymerization (t1/2) of 5 µM c-actin with 50 nM Arp2/3 complex, pyrene-actin assay (control without nucleator 13.8 min) in test [4] turned out to be 1 min.
As to “FH2-domain of the formin mDia3 (from UniProt O70566 625-1025) (domain or fragment)”, in test [1], the half time of polymerization (t1/2) of 5 µM c-actin with 50 nM mDia3-FH2, pyrene-actin assay (control without nucleator 8.6 min) worked out at 6.9 min. This substance registered a half time of polymerization (t1/2) of 5 µM c-actin with 50 nM mDia3-FH2, pyrene-actin assay (control without nucleator 12.2 min) in test [2] of 3.5 min. The half time of polymerization (t1/2) of 5 µM c-actin with 50 nM mDia3-FH2, pyrene-actin assay (control without nucleator 4.0 min) in test [3] is 2.9 min. In test [4], this substance yielded a half time of polymerization (t1/2) of 5 µM c-actin with 50 nM mDia3-FH2, pyrene-actin assay (control without nucleator 13.8 min) of 4.1 min.
As to “human cardiac muscle wild-type α-actin (recombinant) (from UniProt P68032 1-377) (natural protein)”, the half time of polymerization (t1/2) in test [5] is 8.6 min.
